Data reported in US9657062B2, “Ghrelin analogues” (Zealand Pharma A/S, priority 2012, dated 2017).
*1 amine or outer side, *2 acyl side, *3 side chain or, on linkers, in order; H or OH if unused. [ ]: non-standard residue; d: D form. The star is where a group is joined. Achc(cis-1,4) = O=C([C@H]1CC[C@@H](N[*:1])CC1)[*:2]; Achc(trans-4) = O=C([C@H]1CC[C@H](N[*:1])CC1)[*:2]; Palmitoyl = CCCCCCCCCCCCCCCC(=O)*; 3Amb = NCc1cccc(C(=O)O)c1; Octanoyl = CCCCCCCC(=O)*; Aib = CC(C)(N)C(=O)O; Inp = O=C(O)C1CCNCC1; Octyl = CCCCCCCC*

Target: human growth hormone secretagogue receptor type 1a (human, UniProt Q92847 1-366)
Assay: cell-based or functional assay

human growth hormone secretagogue receptor type 1a, sequence (Q92847 whole entry): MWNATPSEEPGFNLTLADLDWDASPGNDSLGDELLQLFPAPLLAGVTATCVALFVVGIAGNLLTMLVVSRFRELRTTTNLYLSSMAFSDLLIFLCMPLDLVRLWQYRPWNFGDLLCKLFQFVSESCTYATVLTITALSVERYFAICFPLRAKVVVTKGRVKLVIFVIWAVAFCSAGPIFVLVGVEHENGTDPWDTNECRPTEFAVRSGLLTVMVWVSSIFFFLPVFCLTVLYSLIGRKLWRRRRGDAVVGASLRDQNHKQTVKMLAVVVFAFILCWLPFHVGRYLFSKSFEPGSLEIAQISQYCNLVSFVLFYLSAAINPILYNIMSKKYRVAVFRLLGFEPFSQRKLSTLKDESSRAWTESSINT

Binder	EC50 (nM); Ca2+ induction in HEK293 cells stably expressing the human ghrelin receptor [nM]
H-[Achc(cis-1,4)]S(Octanoyl)FLSPEHQRVQQRKESKKPPAKLQPR-OH (SMILES CCCCCCCC(=O)OC[C@H](NC(=O)[C@H]1CC[C@@H](N)CC1)C(=O)N[C@@H](Cc1ccccc1)C(=O)N[C@@H](CC(C)C)C(=O)N[C@@H](CO)C(=O)N1CCC[C@H]1C(=O)N[C@@H](CCC(=O)O)C(=O)N[C@@H](Cc1c[nH]cn1)C(=O)N[C@@H](CCC(N)=O)C(=O)N[C@@H](CCCNC(=N)N)C(=O)N[C@H](C(=O)N[C@@H](CCC(N)=O)C(=O)N[C@@H](CCC(N)=O)C(=O)N[C@@H](CCCNC(=N)N)C(=O)N[C@@H](CCCCN)C(=O)N[C@@H](CCC(=O)O)C(=O)N[C@@H](CO)C(=O)N[C@@H](CCCCN)C(=O)N[C@@H](CCCCN)C(=O)N1CCC[C@H]1C(=O)N1CCC[C@H]1C(=O)N[C@@H](C)C(=O)N[C@@H](CCCCN)C(=O)N[C@@H](CC(C)C)C(=O)N[C@@H](CCC(N)=O)C(=O)N1CCC[C@H]1C(=O)N[C@@H](CCCNC(=N)N)C(=O)O)C(C)C) [H-[cACC]-S(O-octanoyl)-FLSPEHQRVQQRKESKKPPAKLQPR-OH]	0.379
H-[Aib]SS(Octyl)FLSPEHQRVQQRKESK(Palmitoyl)KPPAKLQPR-OH (SMILES CCCCCCCCCCCCCCCC(=O)NCCCC[C@H](NC(=O)[C@H](CO)NC(=O)[C@H](CCC(=O)O)NC(=O)[C@H](CCCCN)NC(=O)[C@H](CCCNC(=N)N)NC(=O)[C@H](CCC(N)=O)NC(=O)[C@H](CCC(N)=O)NC(=O)[C@@H](NC(=O)[C@H](CCCNC(=N)N)NC(=O)[C@H](CCC(N)=O)NC(=O)[C@H](Cc1c[nH]cn1)NC(=O)[C@H](CCC(=O)O)NC(=O)[C@@H]1CCCN1C(=O)[C@H](CO)NC(=O)[C@H](CC(C)C)NC(=O)[C@H](Cc1ccccc1)NC(=O)[C@H](COCCCCCCCC)NC(=O)[C@H](CO)NC(=O)C(C)(C)N)C(C)C)C(=O)N[C@@H](CCCCN)C(=O)N1CCC[C@H]1C(=O)N1CCC[C@H]1C(=O)N[C@@H](C)C(=O)N[C@@H](CCCCN)C(=O)N[C@@H](CC(C)C)C(=O)N[C@@H](CCC(N)=O)C(=O)N1CCC[C@H]1C(=O)N[C@@H](CCCNC(=N)N)C(=O)O) [H-Aib-S-S(O-octyl)-FLSPEHQRVQQRKES-K(hexadecanoyl)-KPPAKLQPR-OH]	2.9
XSSFLSPEHQRVQQRKESKKPPAKLQPR (DPro at position 1; Ser(O-octyl) at position 3; C-terminal -OH) [H-[DPro]-S-S(O-octyl)-FLSPEHQRVQQRKESKKPPAKLQPR-OH]	0.77
H-[3Amb]S(Octanoyl)FLSPEHQRVQQRKESKKPPAKLQPR-OH (SMILES CCCCCCCC(=O)OC[C@H](NC(=O)c1cccc(CN)c1)C(=O)N[C@@H](Cc1ccccc1)C(=O)N[C@@H](CC(C)C)C(=O)N[C@@H](CO)C(=O)N1CCC[C@H]1C(=O)N[C@@H](CCC(=O)O)C(=O)N[C@@H](Cc1c[nH]cn1)C(=O)N[C@@H](CCC(N)=O)C(=O)N[C@@H](CCCNC(=N)N)C(=O)N[C@H](C(=O)N[C@@H](CCC(N)=O)C(=O)N[C@@H](CCC(N)=O)C(=O)N[C@@H](CCCNC(=N)N)C(=O)N[C@@H](CCCCN)C(=O)N[C@@H](CCC(=O)O)C(=O)N[C@@H](CO)C(=O)N[C@@H](CCCCN)C(=O)N[C@@H](CCCCN)C(=O)N1CCC[C@H]1C(=O)N1CCC[C@H]1C(=O)N[C@@H](C)C(=O)N[C@@H](CCCCN)C(=O)N[C@@H](CC(C)C)C(=O)N[C@@H](CCC(N)=O)C(=O)N1CCC[C@H]1C(=O)N[C@@H](CCCNC(=N)N)C(=O)O)C(C)C) [H-Mamb-S(O-octanoyl)-FLSPEHQRVQQRKESKKPPAKLQPR-OH]	1.56
XSSFLSPEHQRVQQRKESKKPPAKLQPR (DPro at position 1; Ser(O-octyl) at position 3; K(hexadecanoyl) at position 19; C-terminal -OH) [H-[DPro]-S-S(O-octyl)-FLSPEHQRVQQRKES-K(hexadecanoyl)-KPPAKLQPR-OH]	4.63
H-[Inp]SS(Octyl)FLSPEHQRVQQRKESKKPPAKLK(Palmitoyl)PR-OH (SMILES CCCCCCCCCCCCCCCC(=O)NCCCC[C@H](NC(=O)[C@H](CC(C)C)NC(=O)[C@H](CCCCN)NC(=O)[C@H](C)NC(=O)[C@@H]1CCCN1C(=O)[C@@H]1CCCN1C(=O)[C@H](CCCCN)NC(=O)[C@H](CCCCN)NC(=O)[C@H](CO)NC(=O)[C@H](CCC(=O)O)NC(=O)[C@H](CCCCN)NC(=O)[C@H](CCCNC(=N)N)NC(=O)[C@H](CCC(N)=O)NC(=O)[C@H](CCC(N)=O)NC(=O)[C@@H](NC(=O)[C@H](CCCNC(=N)N)NC(=O)[C@H](CCC(N)=O)NC(=O)[C@H](Cc1c[nH]cn1)NC(=O)[C@H](CCC(=O)O)NC(=O)[C@@H]1CCCN1C(=O)[C@H](CO)NC(=O)[C@H](CC(C)C)NC(=O)[C@H](Cc1ccccc1)NC(=O)[C@H](COCCCCCCCC)NC(=O)[C@H](CO)NC(=O)C1CCNCC1)C(C)C)C(=O)N1CCC[C@H]1C(=O)N[C@@H](CCCNC(=N)N)C(=O)O) [H-Inp-S-S(O-octyl)-FLSPEHQRVQQRKESKKPPAKL-K(hexadecanoyl)-PR-OH]	1.18
H-[Achc(trans-4)]S(Octanoyl)FLSPEHQRVQQRKESKKPPAKLQPR-OH (SMILES CCCCCCCC(=O)OC[C@H](NC(=O)[C@H]1CC[C@H](N)CC1)C(=O)N[C@@H](Cc1ccccc1)C(=O)N[C@@H](CC(C)C)C(=O)N[C@@H](CO)C(=O)N1CCC[C@H]1C(=O)N[C@@H](CCC(=O)O)C(=O)N[C@@H](Cc1c[nH]cn1)C(=O)N[C@@H](CCC(N)=O)C(=O)N[C@@H](CCCNC(=N)N)C(=O)N[C@H](C(=O)N[C@@H](CCC(N)=O)C(=O)N[C@@H](CCC(N)=O)C(=O)N[C@@H](CCCNC(=N)N)C(=O)N[C@@H](CCCCN)C(=O)N[C@@H](CCC(=O)O)C(=O)N[C@@H](CO)C(=O)N[C@@H](CCCCN)C(=O)N[C@@H](CCCCN)C(=O)N1CCC[C@H]1C(=O)N1CCC[C@H]1C(=O)N[C@@H](C)C(=O)N[C@@H](CCCCN)C(=O)N[C@@H](CC(C)C)C(=O)N[C@@H](CCC(N)=O)C(=O)N1CCC[C@H]1C(=O)N[C@@H](CCCNC(=N)N)C(=O)O)C(C)C) [H-[tACC]-S(O-octanoyl)-FLSPEHQRVQQRKESKKPPAKLQPR-OH]	1.89
H-PSS(Octyl)FLSPEHQRVQQRKESKKPPAKLQPR-OH [H-PS-S(O-octyl)-FLSPEHQRVQQRKESKKPPAKLQPR-OH]	0.579
H-[Inp]SS(Octyl)FLSPEHQRVQQRKESK(Palmitoyl)KPPAKLQPR-OH (SMILES CCCCCCCCCCCCCCCC(=O)NCCCC[C@H](NC(=O)[C@H](CO)NC(=O)[C@H](CCC(=O)O)NC(=O)[C@H](CCCCN)NC(=O)[C@H](CCCNC(=N)N)NC(=O)[C@H](CCC(N)=O)NC(=O)[C@H](CCC(N)=O)NC(=O)[C@@H](NC(=O)[C@H](CCCNC(=N)N)NC(=O)[C@H](CCC(N)=O)NC(=O)[C@H](Cc1c[nH]cn1)NC(=O)[C@H](CCC(=O)O)NC(=O)[C@@H]1CCCN1C(=O)[C@H](CO)NC(=O)[C@H](CC(C)C)NC(=O)[C@H](Cc1ccccc1)NC(=O)[C@H](COCCCCCCCC)NC(=O)[C@H](CO)NC(=O)C1CCNCC1)C(C)C)C(=O)N[C@@H](CCCCN)C(=O)N1CCC[C@H]1C(=O)N1CCC[C@H]1C(=O)N[C@@H](C)C(=O)N[C@@H](CCCCN)C(=O)N[C@@H](CC(C)C)C(=O)N[C@@H](CCC(N)=O)C(=O)N1CCC[C@H]1C(=O)N[C@@H](CCCNC(=N)N)C(=O)O) [H-Inp-S-S(O-octyl)-FLSPEHQRVQQRKES-K(hexadecanoyl)-KPPAKLQPR-OH]	2.52
H-PSS(Octyl)FLSPEHQRVQQRKESK(Palmitoyl)KPPAKLQPR-OH (SMILES CCCCCCCCCCCCCCCC(=O)NCCCC[C@H](NC(=O)[C@H](CO)NC(=O)[C@H](CCC(=O)O)NC(=O)[C@H](CCCCN)NC(=O)[C@H](CCCNC(=N)N)NC(=O)[C@H](CCC(N)=O)NC(=O)[C@H](CCC(N)=O)NC(=O)[C@@H](NC(=O)[C@H](CCCNC(=N)N)NC(=O)[C@H](CCC(N)=O)NC(=O)[C@H](Cc1c[nH]cn1)NC(=O)[C@H](CCC(=O)O)NC(=O)[C@@H]1CCCN1C(=O)[C@H](CO)NC(=O)[C@H](CC(C)C)NC(=O)[C@H](Cc1ccccc1)NC(=O)[C@H](COCCCCCCCC)NC(=O)[C@H](CO)NC(=O)[C@@H]1CCCN1)C(C)C)C(=O)N[C@@H](CCCCN)C(=O)N1CCC[C@H]1C(=O)N1CCC[C@H]1C(=O)N[C@@H](C)C(=O)N[C@@H](CCCCN)C(=O)N[C@@H](CC(C)C)C(=O)N[C@@H](CCC(N)=O)C(=O)N1CCC[C@H]1C(=O)N[C@@H](CCCNC(=N)N)C(=O)O) [H-PS-S(O-octyl)-FLSPEHQRVQQRKES-K(hexadecanoyl)-KPPAKLQPR-OH]	2.88
H-[Inp]SS(Octyl)FLSPEHQRVK(Palmitoyl)QRKESKKPPAKLQPR-OH (SMILES CCCCCCCCCCCCCCCC(=O)NCCCC[C@H](NC(=O)[C@@H](NC(=O)[C@H](CCCNC(=N)N)NC(=O)[C@H](CCC(N)=O)NC(=O)[C@H](Cc1c[nH]cn1)NC(=O)[C@H](CCC(=O)O)NC(=O)[C@@H]1CCCN1C(=O)[C@H](CO)NC(=O)[C@H](CC(C)C)NC(=O)[C@H](Cc1ccccc1)NC(=O)[C@H](COCCCCCCCC)NC(=O)[C@H](CO)NC(=O)C1CCNCC1)C(C)C)C(=O)N[C@@H](CCC(N)=O)C(=O)N[C@@H](CCCNC(=N)N)C(=O)N[C@@H](CCCCN)C(=O)N[C@@H](CCC(=O)O)C(=O)N[C@@H](CO)C(=O)N[C@@H](CCCCN)C(=O)N[C@@H](CCCCN)C(=O)N1CCC[C@H]1C(=O)N1CCC[C@H]1C(=O)N[C@@H](C)C(=O)N[C@@H](CCCCN)C(=O)N[C@@H](CC(C)C)C(=O)N[C@@H](CCC(N)=O)C(=O)N1CCC[C@H]1C(=O)N[C@@H](CCCNC(=N)N)C(=O)O) [H-Inp-S-S(O-octyl)-FLSPEHQRV-K(hexadecanoyl)-QRKESKKPPAKLQPR-OH]	2.55
